Molecular target: T1, human LFL2-Fc fusion protein (human, UniProt P01857-1 99-330 = IgG part, limits assumed)
T1 construct: domain: constant region of the human gamma 1 immunoglobulin heavy chain; In-frame fusion of the LFL2 extracellular domain with the human gamma 1 constant region; GenBank NP-570843.1 is printed for LFL2/LRRC15
Assay: SPR (BIAcore 3000), mAb immobilised on CM5, LFL2-Fc analyte, bivalent analyte model
Experimental: Kinetics measurements between human LFL2-Fc fusion protein and anti-LFL2 mAbs were performed using BIAcore 3000™ (BIAcore™, Sweden). Anti-LFL2 mAbs were immobilized with 100 RUs on Research-grade CM5 sensor chip by the BIAcore amine coupling reagents (N-ethyl-N′-dimethylaminopropylcarbodiimide, EDC; N-hydroxysuccinimide, NHS; and ethanolamine HCl, pH8.5). Assays were run at a flow rate of 30 ul/min at room temperature. Three-minute association phase of each LFL2-Fc was followed by ten-minute injection of running buffer (10 mM Hepes, 300 mM sodium chloride, 3 mM EDTA, 0.05% P-20, pH7.4) to monitor dissociation. The mAb surface was regenerated with 25 mM NaOH. […] Double referencing was applied in each analysis to eliminate background responses from reference surface and buffer only control. The affinity (KD) of binding was obtained by simultaneously fitting the association and dissociation phases of the sensorgram from the analyte concentration series using the bivalent analyte model from BIAevaluate software.

T1 sequence (P01857 other isoform, or with tags, fused parts or gaps limits assumed): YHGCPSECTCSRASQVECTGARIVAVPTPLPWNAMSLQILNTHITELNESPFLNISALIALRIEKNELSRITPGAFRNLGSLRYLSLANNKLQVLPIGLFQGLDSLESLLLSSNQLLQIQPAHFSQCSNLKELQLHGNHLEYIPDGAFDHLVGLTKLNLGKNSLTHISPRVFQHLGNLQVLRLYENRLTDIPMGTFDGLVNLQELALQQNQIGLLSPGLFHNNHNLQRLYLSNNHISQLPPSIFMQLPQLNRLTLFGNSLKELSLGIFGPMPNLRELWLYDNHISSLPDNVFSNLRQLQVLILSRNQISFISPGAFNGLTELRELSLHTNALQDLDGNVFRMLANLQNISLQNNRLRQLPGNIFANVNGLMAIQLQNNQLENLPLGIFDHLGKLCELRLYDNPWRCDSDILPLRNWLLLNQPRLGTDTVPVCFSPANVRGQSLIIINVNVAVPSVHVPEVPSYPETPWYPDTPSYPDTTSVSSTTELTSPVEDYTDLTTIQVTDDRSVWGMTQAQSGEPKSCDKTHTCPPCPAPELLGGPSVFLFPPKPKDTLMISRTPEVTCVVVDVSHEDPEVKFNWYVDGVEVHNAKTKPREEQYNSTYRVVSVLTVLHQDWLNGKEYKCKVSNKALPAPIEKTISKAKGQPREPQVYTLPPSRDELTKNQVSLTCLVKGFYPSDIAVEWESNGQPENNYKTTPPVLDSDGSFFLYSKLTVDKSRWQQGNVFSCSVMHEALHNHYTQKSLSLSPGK

B1: anti-LFL2 mAb M25 (antibody, V domains shown)
VH: QVQLQQSGAELMKPGASVKISCKATGYKFSSYWIEWVKQRPGHGLEWIGEILPGSDTTNYNEKFKDKATFTSDTSSNTAYMQLSSLTSEDSAVYYCARDRGNYRAWFGYWGQGTLVTVS
VL: DIQMTQTSSLSASLGDRVTISCRASQDISNYLNWYQQKPDGTVKFLIYYTSRLHSGVPSRFSGSGSGTDYSLTISYLEPEDIATYFCQQGEALPWTFGGGTKLEIKR
Kd: 1.2 nM

Reference: patent US20050260212A1 (PDL BIOPHARMA, published 2005)
